Patent US7790155B2, “Calbindin-D28K protection against glucocorticoid induced cell death” (University of Medicine and Dentistry of New Jersey, priority 2002, dated 2010)
Entries after “also recorded” stand apart in the source; their conditions may differ.

Legend:
primary osteoblasts = assay: Dexamethasone induced cell death of primary osteoblasts, trypan blue uptake; type: cell-based, murine; conditions: 16 h dex. treatment (10^−6M)
Protocol: Cell viability was monitored by trypan blue exclusion. Nonadherent cells were combined with adherent cells released from the culture dish using trypsin-EDTA, resuspended in medium containing serum and collected by centrifugation. 0.04% trypan blue was added and the 150 cells per condition are counted). DNA fragmentation was measured by the TUNEL (transferase biotin-dUTP nick endlabeling). […] 104, 1363-1374; and Bellido, T., O'Brien, C. A., Roberson, P. K., and Manolagas, S. C. (1998) J. Biol. Chem. 273, 21137-21144).
In addition to MLO-Y4 cells, it will also be possible to determine the effect of dexamethasone in the presence or absence of calbindin-D28k on apoptotic cell death and on caspase 3 activity (with the methodology outlined above) using primary osteoblastic cells from calbindin-D28k KO and WT mice. Murine osteoblasts will be isolated from pups 30-72 h old from our colony of WT (C57BL6) or calbindin-D28k KO mice (cite 22 of grant, cite 111 of grant) by controlled digestion with collagenase (cite 112 of grant). Briefly calvariae, trimmed of fibrous tissue and divided in 2 are transferred to 15 ml conical sterile tubes, washed with PBS (5 ml) 3× at 37° C. (10 min/wash) in an oscillating H2O bath. Calvariae are then subjected to a series of collagenase digestions (200 μg/Ml PBS collagenase CLS2 from Worthington) in an oscillating 37° C. […]

MLO-Y4 osteocytic cells = assay: Dexamethasone induced cell death of MLO-Y4 cells transfected with calbindin-D28k expression vector (trypan blue, TUNEL, morphology); type: cell-based, murine; conditions: MLO-Y4 cells transfected with pREP4 or BSRα calbindin-D28k vector vs vector alone, 10^−6M dexamethasone, 6, 12 and 24 h
Protocol: Murine osteocytic MLO-Y4 cells (provided by Dr. Lynda Bonewald, University of Texas Health Center at San Antonio, Tex.), and primary bone cells (isolated from neonatal murine calvaria) were cultured as indicated previously (Kato, Y., Windle, J. J., Koop, B. A., Mundy, G. R., and Bonewald, L. F. (1997) J. Bone Miner Res. 12, 2014-2023) (Bellido, T., Borba, V. Z. C., Roberson, P. K., and Manolagas, S. C. (1997) Endocrinology 138, 3666-3676). All culture media contained 100 units/ml penicillin and 100 μg/ml streptomycin. Cultures were kept in a humidified atmosphere of 5% CO2 in air at 37° C.
Transient transfections of MLO-Y4 cells were carried out in 12-well culture plates using SUPERFECT®. […] After 6, 12 and 24 h, apoptosis was induced by addition of 10^−6M dexamethasone and quantified as indicated below or cell lysates collected for the analysis of calbindin-D28k by Western blotting and radioimmunoassay (cite 65 of grant).
Cell viability was monitored by trypan blue exclusion. […] 0.04% trypan blue was added and the 150 cells per condition are counted). DNA fragmentation was measured by the TUNEL (transferase biotin-dUTP nick endlabeling). […]
Data were analyzed by one-way analysis of variance, and the Student-Keuls-Newman method was used to estimate the level of significance of differences between means. […]

MC3T3-E1 cells = MC3T3-E1 cells transfected with calbindin-D28K cDNA vs empty vector; cited from earlier work
lymphocytes = conditions: stable expression of calbindin-D28k cDNA in lymphocytes (Dowd et al. 1992); cited from earlier work

Molecule	% of dead cells (trypan blue uptake) (primary osteoblasts; in the absence of calbindin-D28k)	protection against glucocorticoid (dexamethasone) induced cell death (MLO-Y4 osteocytic cells)	protection against glucocorticoid (dexamethasone) induced cell death (MLO-Y4 osteocytic cells; listed as calbindin-D28K)	pro-apoptotic effect of TNF (nuclear fragmentation) (MC3T3-E1 cells)	protection against glucocorticoid induced lymphocyte cell death (lymphocytes)	% of dead cells (trypan blue uptake) (primary osteoblasts; in the presence of calbindin-D28k, p<0.05)
C[C@@H]1C[C@H]2[C@@H]3CCC4=CC(=O)C=C[C@]4(C)[C@@]3(F)[C@@H](O)C[C@]2(C)[C@@]1(O)C(=O)CO [dex., dexamethasone, reference compound]	23.2±3%					
calbindin-D28k: calcium binding protein (polypeptide of SEQ ID NO:2), expressed in cells from pREP4 or BSRα calbindin-D28k expression vectors (protein, listed as Homo sapiens) MAESHLQSSLITASQFFEIWLHFDADGSGYLEGKELQNLIQELQQARKKAGLELSPEMKTFVDQYGQRDDGKIGIVELAHVLPTEENFLLLFRCQQLKSCEEFMKTWRKYDTDHSGFIETEELKNFLKDLLEKANKTVDDTKLAEYTDLMLKLFDSNNDGKLELTEMARLLPVQENFLLKFQGIKMCGKEFNKAFELYDQDGNGYIDENELDALLKDLCEKNKQDLDINNITTYKKNIMALSDGGKLYRTDLALILCAGDN		protection; also recorded: protected against glucocorticoid induced cell death	protection against dexamethasone induced cell death	significantly attenuated	protect against glucocorticoid induced lymphocyte cell death	12.9±2.4%
